Reference: article PMC4729957, “The Atg1–kinase complex tethers Atg9-vesicles to initiate autophagy” (Nature Communications, 2016)
Values belong to the molecule of their own block, whether it stands above or below them.

T1: Atg9^core (Atg9^281–779), reconstituted in proteoliposomes (S. cerevisiae) (UniProt Q12142)
T1 sequence: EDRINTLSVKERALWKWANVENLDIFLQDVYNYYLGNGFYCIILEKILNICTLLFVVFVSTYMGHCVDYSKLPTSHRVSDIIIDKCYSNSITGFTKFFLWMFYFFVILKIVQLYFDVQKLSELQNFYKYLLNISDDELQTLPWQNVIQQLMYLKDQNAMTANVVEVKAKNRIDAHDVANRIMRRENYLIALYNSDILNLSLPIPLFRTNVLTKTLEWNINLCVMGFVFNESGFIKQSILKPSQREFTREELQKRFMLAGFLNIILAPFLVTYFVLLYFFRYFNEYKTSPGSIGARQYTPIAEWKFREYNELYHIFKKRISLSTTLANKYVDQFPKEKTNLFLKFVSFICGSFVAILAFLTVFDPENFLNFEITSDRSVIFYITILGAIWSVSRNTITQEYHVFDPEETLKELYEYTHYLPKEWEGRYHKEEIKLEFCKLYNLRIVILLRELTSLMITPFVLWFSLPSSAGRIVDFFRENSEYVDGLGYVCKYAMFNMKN

B1: thioredoxin-tagged Atg17^235–354 (domain or fragment, S. cerevisiae, UniProt Q06410 235-354, looked up)
chain: DEREELFKVVQGDDKELYNIFKTLHEVIDDVDKTILNLGQFLQAKIKEKTELHSEVSEIINDFNRNLEYLLIFKDISNLIDSFKNSCTQDIQTTKELCEFYDNFEESYGNLVLEAKRRKD
notes: source: E. coli Rosetta, purified
B2: thioredoxin-tagged Atg17^235–417 (domain or fragment, S. cerevisiae, UniProt Q06410 235-417, looked up)
chain: DEREELFKVVQGDDKELYNIFKTLHEVIDDVDKTILNLGQFLQAKIKEKTELHSEVSEIINDFNRNLEYLLIFKDISNLIDSFKNSCTQDIQTTKELCEFYDNFEESYGNLVLEAKRRKDVANRMKTILKDCEKQLQNLDAQDQEERQNFIAENGTYLPETIWPGKIDDFSSLYTLNYNVKNP
notes: as for B1
B3: Atg17–Atg31–Atg29 trimeric complex (Atg17^TC) (complex, S. cerevisiae)
chain 1: MNEADVTKFVNNARKTLTDAQLLCSSANLRIVDIKKKLSSWQLSISKLNFLIVGLRQQGKFLYTILKEGIGTKLIQKQWNQAVLVVLVDEMKYWQYEITSKVQRLDGIVNELSISEKDDTDPSKLGDYISRDNVNLLNDKLKEVPVIERQIENIKLQYENMVRKVNKELIDTKLTDVTQKFQSKFGIDNLMETNVAEQFSRELTDLEKDLAEIMNSLTQHFDKTLLLQDKKIDNDEREELFKVVQGDDKELYNIFKTLHEVIDDVDKTILNLGQFLQAKIKEKTELHSEVSEIINDFNRNLEYLLIFKDISNLIDSFKNSCTQDIQTTKELCEFYDNFEESYGNLVLEAKRRKDVANRMKTILKDCEKQLQNLDAQDQEERQNFIAENGTYLPETIWPGKIDDFSSLYTLNYNVKNP
chain 2: MNVTVTVYDKNVKYRLEENIKNNKGPSNDDQPAYNNESKSTDGSDYAMFPTNIKYIFEDNNDELVDSSDAALTAGIDKVGDELENVIIVQLDESGSLEDITLISDQYELLSHRTNSLSLEENQMRTLSSHGDDKSNDEEEELSVDSDRFRVDSDIELDVISQFCDLSPFLRDLSLNDLIKLYVTQNEQLQMLSNSV
chain 3: MIMNSTNTVVYIKVKGRRPQGFLDPPKFEWNGTKERQLWTMVSNLNYSQDQIDWQNLSKIFETPEFFLKKRTYKLFAEHLELLQLQLEKKRDLEKYSNDQVNEGMSDLIHKYTPTLQNDNLLNVSASPLTTERQDSEEVETEVTNEALQHLQTSKILNIHKKTSDSENKPNDKLDKDGINKEMECGSSDDDLSSSLSVSKSALEEALMDRLQF
notes: Atg17, S. cerevisiae BY4741; Atg31, S. cerevisiae BY4741; Atg29, S. cerevisiae BY4741; dimer of trimers through Atg17; also produced by combining Atg17 with co-expressed Atg31–Atg29; also called Atg17-Atg31–Atg29 complex; source: E. coli Rosetta, co-expressed from pST39, purified (Ni-NTA, SEC); not shown: His6, N-terminal, cleaved; copies: 2 + 2 + 2
B4: myc-tagged Atg17 (Atg17^myc), recombinant (natural protein, S. cerevisiae, UniProt Q06410 1-417, looked up)
chain: B3 chain 1
notes: Atg17, S. cerevisiae BY4741, open reading frame from genomic DNA; expressed from pST39 with a myc-tag at the C-terminus of Atg17; also called recombinant myc-tagged Atg17; source: E. coli Rosetta, purified; not shown: myc, C-terminal, kept
B5: Atg17^1–354-Atg31–Atg29 (Atg17^monoTC) (complex, S. cerevisiae)
chain 1: MNEADVTKFVNNARKTLTDAQLLCSSANLRIVDIKKKLSSWQLSISKLNFLIVGLRQQGKFLYTILKEGIGTKLIQKQWNQAVLVVLVDEMKYWQYEITSKVQRLDGIVNELSISEKDDTDPSKLGDYISRDNVNLLNDKLKEVPVIERQIENIKLQYENMVRKVNKELIDTKLTDVTQKFQSKFGIDNLMETNVAEQFSRELTDLEKDLAEIMNSLTQHFDKTLLLQDKKIDNDEREELFKVVQGDDKELYNIFKTLHEVIDDVDKTILNLGQFLQAKIKEKTELHSEVSEIINDFNRNLEYLLIFKDISNLIDSFKNSCTQDIQTTKELCEFYDNFEESYGNLVLEAKRRKD
chain 2: B3 chain 2
chain 3: B3 chain 3
notes: Atg31, S. cerevisiae BY4741; Atg29, S. cerevisiae BY4741; source: E. coli Rosetta, co-expressed from pST39, purified (Ni-NTA, SEC); not shown: His6, N-terminal, cleaved; copies: + +
B6: thioredoxin-tagged Atg17^354–417 (domain or fragment, S. cerevisiae, UniProt Q06410 354-417, looked up)
chain: DVANRMKTILKDCEKQLQNLDAQDQEERQNFIAENGTYLPETIWPGKIDDFSSLYTLNYNVKNP
notes: also called dimerization domain; source: E. coli Rosetta, purified
B7: Atg9^core (Atg9^281–779), reconstituted in proteoliposomes (domain or fragment, S. cerevisiae, UniProt Q12142 281-779, looked up)
chain: T1 sequence
notes: Atg9, S. cerevisiae BY4741, conserved core region, residues 281–779; modified pET28a(+) vector; about 50% of the protein in the proteoliposomes has its cytoplasmic domains outside; liposomes of cholesterol, POPE, POPC, POPS, without PI; also called Atg9–PLs; Atg9-PL; source: E. coli Rosetta, solubilised in LDAO, purified (Ni-NTA, SEC), reconstituted in liposomes; not shown: His tag, C-terminal, …

Tests used:
[1] = molecular target: pentameric Atg1–kinase complex (Atg1^PC) (S. cerevisiae) (UniProt P53104); test: SEC-MALS; Atg1^PC injected at 3.4 mg ml^−1, 100 μl, Superose-6 10/300GL
[2] = molecular target: B7; test: co-floatation with proteoliposomes; Atg9 variant held in proteoliposomes (synthetic lipids without PI), partner in solution at 1:1, Nycodenz step gradient, 650,000g 2 h at 4 °C, 25 mM HEPES pH 7.0, 100 mM NaCl; top fraction read by SDS–PAGE or α-myc immunoblot; conditions: both partners purified
[3] = molecular target: the molecule itself; test: not stated; recombinantly expressed Atg17 fragment; how the dimer was shown is not told
[4] = molecular target: T1, Atg9^core (Atg9^281–779), reconstituted in proteoliposomes (S. cerevisiae)
[5] = molecular target: the molecule itself; test: dynamic light scattering; Stokes radii (RH) of the purified proteins and complexes in solution
Atg1–Atg13 subcomplex = molecular target: T2, Atg1–Atg13 subcomplex (S. cerevisiae, UniProt P53104 1-897; Q06628 1-738, phosphothreonine at 226 (T226)); test: SEC; complexes assembled from purified subunits or subcomplexes, 30 min at room temperature, then gel filtration on Superose 6; conditions: both partners purified
T2 construct: Atg1, S. cerevisiae BY4741; Atg13, S. cerevisiae BY4741; source: assembled from purified subunits (Atg1 from High Five cells, Atg13 from E. coli Rosetta), gel filtration on Superose 6
T2 sequence (P53104 whole entry, chain 1 of 2): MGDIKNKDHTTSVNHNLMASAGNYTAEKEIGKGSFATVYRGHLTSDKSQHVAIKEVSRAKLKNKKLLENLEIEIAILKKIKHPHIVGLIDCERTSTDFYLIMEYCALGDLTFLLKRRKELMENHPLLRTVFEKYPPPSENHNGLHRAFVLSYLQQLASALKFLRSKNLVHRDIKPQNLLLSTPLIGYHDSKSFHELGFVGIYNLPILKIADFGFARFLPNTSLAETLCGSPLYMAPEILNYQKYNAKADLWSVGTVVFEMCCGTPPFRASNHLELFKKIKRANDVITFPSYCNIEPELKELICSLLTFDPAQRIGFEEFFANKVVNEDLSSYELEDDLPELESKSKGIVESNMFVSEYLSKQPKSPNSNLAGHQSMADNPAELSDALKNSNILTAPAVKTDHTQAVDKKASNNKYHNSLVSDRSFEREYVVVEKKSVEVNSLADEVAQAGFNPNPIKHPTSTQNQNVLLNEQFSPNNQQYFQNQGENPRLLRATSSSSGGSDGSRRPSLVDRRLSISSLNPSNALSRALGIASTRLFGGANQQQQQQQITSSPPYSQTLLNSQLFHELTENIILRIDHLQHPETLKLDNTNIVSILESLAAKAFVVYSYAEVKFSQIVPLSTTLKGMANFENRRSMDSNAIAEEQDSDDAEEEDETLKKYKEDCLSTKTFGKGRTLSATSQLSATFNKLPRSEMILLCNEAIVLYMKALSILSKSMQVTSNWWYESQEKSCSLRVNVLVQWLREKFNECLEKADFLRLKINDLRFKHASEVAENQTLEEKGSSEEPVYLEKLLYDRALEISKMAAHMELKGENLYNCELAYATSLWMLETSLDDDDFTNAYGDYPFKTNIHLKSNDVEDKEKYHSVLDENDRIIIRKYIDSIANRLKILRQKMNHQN
T2 sequence (Q06628 whole entry, chain 2 of 2): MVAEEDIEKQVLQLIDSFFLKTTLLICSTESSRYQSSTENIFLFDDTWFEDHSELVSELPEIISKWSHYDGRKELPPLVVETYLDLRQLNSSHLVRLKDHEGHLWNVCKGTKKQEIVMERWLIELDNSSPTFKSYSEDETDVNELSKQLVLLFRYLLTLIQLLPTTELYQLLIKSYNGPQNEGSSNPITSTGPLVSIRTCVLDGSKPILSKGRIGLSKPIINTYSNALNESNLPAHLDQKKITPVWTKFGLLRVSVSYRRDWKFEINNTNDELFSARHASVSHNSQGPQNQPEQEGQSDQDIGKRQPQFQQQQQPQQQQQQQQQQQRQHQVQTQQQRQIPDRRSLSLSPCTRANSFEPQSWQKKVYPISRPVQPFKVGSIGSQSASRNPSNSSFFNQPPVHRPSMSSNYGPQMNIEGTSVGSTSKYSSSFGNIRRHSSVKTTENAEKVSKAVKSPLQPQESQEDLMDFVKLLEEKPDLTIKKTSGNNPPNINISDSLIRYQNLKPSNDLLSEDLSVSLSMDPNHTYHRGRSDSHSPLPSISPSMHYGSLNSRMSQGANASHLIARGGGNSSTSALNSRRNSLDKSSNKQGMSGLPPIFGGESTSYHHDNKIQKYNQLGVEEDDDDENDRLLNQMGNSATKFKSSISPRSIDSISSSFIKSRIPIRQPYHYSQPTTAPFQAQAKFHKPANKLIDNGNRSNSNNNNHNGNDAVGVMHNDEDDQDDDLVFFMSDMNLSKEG

[6] = molecular target: T3, Atg1^PC with myc-tagged Atg17 (S. cerevisiae, UniProt P53104 1-897; Q06628 1-738; Q06410 1-417; Q12421 1-196; Q12092 1-213, phosphothreonine at 226 (T226)); test: co-floatation with proteoliposomes; Atg9 variant held in proteoliposomes (synthetic lipids without PI), partner in solution at 1:1, Nycodenz step gradient, 650,000g 2 h at 4 °C, 25 mM HEPES pH 7.0, 100 mM NaCl; top fraction read by SDS–PAGE or α-myc immunoblot; conditions: both partners purified
T3 construct: Atg1, S. cerevisiae BY4741; Atg13, S. cerevisiae BY4741; Atg17, S. cerevisiae BY4741; Atg31, S. cerevisiae BY4741; Atg29, S. cerevisiae BY4741; the form detected by α-myc immunoblot in the co-floatation experiments; also called Atg17^TC combined with Atg1–Atg13; source: purified Atg1–Atg13 combined with purified Atg17^TC; not shown: myc, C-terminal, kept; copies: 2 + 2 + 2 + 2 + 2
T3 sequence (P53104 whole entry, chain 1 of 2): as the sequence (P53104 whole entry, chain 1 of 2) above
T3 sequence (Q06628 whole entry, chain 2 of 2): as the sequence (Q06628 whole entry, chain 2 of 2) above

[7] = molecular target: T4, Atg17^TC (myc-tagged Atg17) with Atg13 alone (S. cerevisiae, UniProt Q06628 1-738; Q06410 1-417; Q12421 1-196; Q12092 1-213); test: as above; conditions: both partners purified
T4 construct: Atg13, S. cerevisiae BY4741; Atg17, S. cerevisiae BY4741; Atg31, S. cerevisiae BY4741; Atg29, S. cerevisiae BY4741; it was not isolated as such; also called Atg17^TC in the presence of Atg13; source: purified Atg13 combined with purified Atg17^TC; not shown: myc, C-terminal, kept; copies: + 2 + 2 + 2
T4 sequence (Q06628 whole entry, one chain of several): as the sequence (Q06628 whole entry, chain 2 of 2) above

stoichiometry N [1]: 2
Molecule: pentameric Atg1–kinase complex (Atg1^PC), P53104 1-897; Q06628 1-738; Q06410 1-417; Q12421 1-196; Q12092 1-213

Molecule: B1
binding result [2]: binds

Molecule: B2
stoichiometry N [3]: 2
binding result [2]: binds

Molecule: B3
RH of Atg9–PLs prepared in the presence of Atg17^TC, by DLS (vesicle tethering) [4]: 72 nm
stoichiometry N [5]: 2
binding result (Atg1–Atg13 subcomplex): binds

Molecule: B4
binding result [2]: binds

Molecule: B5
binding result (Atg1–Atg13 subcomplex): binds

Molecule: B6
binding result [2]: binds

Molecule: B7
binding result [6]: binds
binding result [7]: binds
